Experimental data: US8623627B2, “Labelling of fusion proteins with synthetic probes” (New England Biolabs, Inc, priority 2006, dated 2014)

T1: 6×His-^NAGT (Homo sapiens, UniProt P16455, A127T/A154D/C150Q/C62A/G131K/G132T/G153L/K125A/K32I/L33F/M134L/N157G/Q115S/Q116H/R128A/R135S/S151G/S152D/S159E)
T1 construct: ^NAGT is a 182 amino acid mutant of ^wtAGT in which the last 25 amino acids are deleted
T1 sequence (P16455 1-182 K32I/L33F/C62A/Q115S/Q116H/K125A/A127T/R128A/G131K/G132T/M134L/R135S/C150Q/S151G/S152D/G153L/A154D/N157G/S159E): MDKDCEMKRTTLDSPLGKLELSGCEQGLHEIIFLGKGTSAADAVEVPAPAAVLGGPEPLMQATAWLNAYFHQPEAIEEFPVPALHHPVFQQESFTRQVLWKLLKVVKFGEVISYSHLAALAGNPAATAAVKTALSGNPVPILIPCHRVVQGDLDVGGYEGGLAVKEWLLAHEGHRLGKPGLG

T2: GST-ACT1 (Homo sapiens, UniProt P16455, A127T/A154D/C150Q/C62A/G131S/G132T/G153L/K125A/K32I/L33F/M134L/N157G/Q115S/Q116H/R128A/R135D/S151G/S152D/S159M/V148E/Y114R)
T2 construct: made in house
T2 sequence (P16455 1-182 K32I/L33F/C62A/Y114R/Q115S/Q116H/K125A/A127T/R128A/G131S/G132T/M134L/R135D/V148E/C150Q/S151G/S152D/G153L/A154D/N157G/S159M): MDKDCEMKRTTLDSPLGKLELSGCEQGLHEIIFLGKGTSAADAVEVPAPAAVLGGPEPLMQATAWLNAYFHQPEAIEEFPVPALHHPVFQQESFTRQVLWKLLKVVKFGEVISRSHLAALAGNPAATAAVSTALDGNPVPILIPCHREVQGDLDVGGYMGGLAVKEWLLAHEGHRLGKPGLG


Tests used:
6×His-^NAGT = molecular target: T1, 6×His-^NAGT; assay: In vitro specific dual labelling assay, labelling of 6×His-^NAGT; assay type: biochemical; conditions: equimolar GST-ACT1 and 6×His-^NAGT 0.5 μM, single substrate 5 μM, 24° C., 60 minutes
Protocol: (§1) Fluorescent dye-labelled protein mixtures were analyzed by SDS-PAGE, see Example 12. GST-ACT1: fusion protein of ACT 1 (SEQ ID NO:1) with glutathione S-transferase (GST). 6×His-AGT: fusion protein of ^NAGT (SEQ ID NO:2) with the short peptide 6×His. […] BCFL: compound 5 (Example 4). BCCy5: compound 10 (Example 8).
(§2) Labelling reactions were quenched by addition of 4× SDS buffer (8% SDS, 10% β-mercaptoethanol, 240 mM Tris pH 6.8, 40% glycerol) and incubation for 5 min at 95° C. Fluorescent dye-labelled protein mixtures were analyzed by SDS-PAGE as described above.

GST-ACT1 = molecular target: T2, GST-ACT1; assay: In vitro specific dual labelling assay, labelling of GST-ACT1; assay type: biochemical; conditions: equimolar GST-ACT1 and 6×His-^NAGT 0.5 μM, single substrate 5 μM, 24° C., 60 minutes
Protocol: as §1, §2

[1] = Reaction rates of labelling of GST fusion proteins with BCFL; assay type: biochemical; conditions: for kBCFL: second-order rate constant, GST-fusion protein with BCFL, 50 mM HEPES pH 7.2, 24° C.
Protocol: (§3) The fluorescent readout of an SDS gel run after different time of incubation is shown on top with the corresponding graph at the bottom. The percentage of ACT-Fluorescein conjugate (% ACT-FL) formed from ACT is shown vs. time of incubation (min). […] GST-ACT10: fusion protein of ACT 10 (SEQ ID NO:12) with glutathione S-transferase (GST).
(§4) The genes of mutants isolated after phage selection according to Example 9 were amplified by PCR using primers 6 (N, AGT, SEQ ID NO:8) and 7 (C, AGT, SEQ ID NO:9) that contain, respectively, BamH1 and EcoR1 restriction sites for subsequent subcloning into pGEX-2T vector (Amersham Biosciences, Otelfingen, Switzerland). Expression and purification of proteins as GST-ACT fusion proteins were performed as previously described for AGT fusion proteins (A. Juillerat, T. Gronemeyer, A. Keppler, S. Grendreizig, H. Pick, H. Vogel, K. Johnsson, Chem. Biol. 10:313, 2003). […] Samples were taken at different times and the labelling reaction was quenched by addition of 4× SDS buffer (8% SDS, 10% β-mercaptoethanol, 240 mM Tris pH 6.8, 40% glycerol) and incubation at 95° C. for 5 min. The reaction advancement was determined by detection of the fluorescent dye-labelled proteins in SDS-PAGE gel and quantification of fluorescence intensity using a Pharox FX™ molecular imager. The data were fitted to a pseudo-first order reaction model. Second-order rate constants were then obtained by dividing the pseudo first-order constant by the concentration of fluorogenic substrate.

[2] = Urea-induced unfolding, read out as ACT-Fluorescein formed with BCFL; assay type: physicochemical; conditions: for half unfolding urea concentration C1/2: protein 0.5 μM, urea 0 to 8 M for 30 minutes, then 20 μM BCFL for 2 hours
Protocol: Shown is the percentage of ACT-Fluorescein (% ACT-FL) formed. The value obtained at 0 M urea [(NH2)2CO] is set to 100%. Protein (0.5 μM) was incubated in kinetic buffer (50 mM HEPES, pH 7.2, 1 mM DTT) supplemented with urea (0 to 8 M) for 30 minutes. Then the solution was adjusted to 20 μM BCFL and incubated for 2 hours. Samples were then boiled 5 min at 95° C. in SDS buffer. Fluorescent dye-labelled protein mixtures were analyzed by SDS-PAGE. The data set was fitted with Y=100/(1+10^((log C1/2−X)*HillSlope)) to get the half unfolding urea concentration C1/2. The following values of C1/2 were found for the different mutants: • ACT1 2.8±0.1 M; ACT9 4.1±0.1 M; ACT10 5.1±0.2 M.

[3] = Reaction rates of labelling of GST fusion proteins with BGFL; assay type: biochemical; conditions: for kBGFL: second-order rate constant, GST-fusion protein with BGFL, 50 mM HEPES pH 7.2, 24° C.
Protocol: as §3, §4

[4] = versus ^wtAGT; cited from earlier work

Molecule | labelling of 6×His-^NAGT (6×His-^NAGT) | labelling of GST-ACT1 (GST-ACT1) | kBCFL [1] | half unfolding urea concentration C1/2 [2] | kBGFL [3] | also measured
N-[4-(4-Aminopyrimidin-2-yloxymethyl)-benzyl]-Cy5-carboxamide [BCCy5] | 6% | complete labelling |  |  |  | 
Nc1ccnc(OCc2ccc(CNC(=O)c3ccc4c(c3)C3(OC4=O)c4ccc(O)cc4Oc4cc(O)ccc43)cc2)n1 [BCFL, N-[4-(4-Aminopyrimidin-2-yloxymethyl)-benzyl]-fluorescein-6-carboxamide] | 76% | complete labelling |  |  |  | 
O^6-[4-(Cy5)-Aminomethyl]-benzyl guanine [BGCy5] | complete labelling |  |  |  |  | 
ACT 10: alkylcytosine transferase 10, SEQ ID NO:12, from error prone PCR of ACT9 (protein, alyklcytosine transferase 10 derived from O6- alkylguanine-DNA alkyltransferase) MDKDCEMKRTTLDSPLGKLELSGCEQGLHEIIFLGKGTSAADAVEVPAPAAVLGGPEPLIQATAWLNAYFHQPEAIEEFPVPALHHPVFQQESFTRQVLWKLLKVVKFGEVISESHLAALVGNPAATAAVNTALDGNPVPILIPCHRVVQGDSDVGPYLGGLAVKEWLLAHEGHRLGKPGLG |  |  | 1130 M⁻¹ s⁻¹ | 5.1 ± 0.2 M | 10 M⁻¹ s⁻¹ | reactivity towards benzylcytosine [1]: high reactivity; kBC ([1]; FIG. 2, 0.5 μM GST-ACT10 with BCFL): 1130 ± 150 M⁻¹ s⁻¹; stability against denaturation by urea ([2]; 4 M urea): high stability; kBG ([3]; FIG. 2, 0.5 μM GST-ACT10 with BGFL): ~10 M⁻¹ s⁻¹
ACT 1: alkylcytosine transferase 1, SEQ ID NO:1, derived from ^NAGT by directed evolution (protein, alkylcytosine transferase 1 derived from O6- alkylguanine-DNA alkyltransferase) MDKDCEMKRTTLDSPLGKLELSGCEQGLHEIIFLGKGTSAADAVEVPAPAAVLGGPEPLMQATAWLNAYFHQPEAIEEFPVPALHHPVFQQESFTRQVLWKLLKVVKFGEVISRSHLAALAGNPAATAAVSTALDGNPVPILIPCHREVQGDLDVGGYMGGLAVKEWLLAHEGHRLGKPGLG |  |  | 730 M⁻¹ s⁻¹ | 2.8 ± 0.1 M | <10 M⁻¹ s⁻¹ | 
^NAGT: 182 amino acid mutant of ^wtAGT, SEQ ID NO:2, starting point for directed evolution (protein, O6-alkylguanine-DNA alkyltransferase (AGT) mutant) MDKDCEMKRTTLDSPLGKLELSGCEQGLHEIIFLGKGTSAADAVEVPAPAAVLGGPEPLMQATAWLNAYFHQPEAIEEFPVPALHHPVFQQESFTRQVLWKLLKVVKFGEVISYSHLAALAGNPAATAAVKTALSGNPVPILIPCHRVVQGDLDVGGYEGGLAVKEWLLAHEGHRLGKPGLG |  |  | 26 M⁻¹ s⁻¹ |  | 28000 M⁻¹ s⁻¹ | higher activity towards benzylguanine derivatives than wild-type ^wtAGT [4]: approximately 50 fold
